Reference: patent US11230591
Substitutions are numbered along the chain they refer to.

B1: 1-15 (antibody, V domains shown)
VH: QVQLVASGGGLVKPGGSLRLSCAASEFTFSDYYMTWIRQAPGKGLEWVSYISSSGTTIYYADSVKGRFTVSRDNAKNSLFLQMNSLRAEDTALYYCARDSYSKLVDIEAIEAFDIWGQGTMVTVSS
VL: SYELTQPPSVSVGPGRTARITCGANNIGSKSVHWYQQRPGQAPVLVISFDTDRPSGIPERFSGSNSGNTATLTISRVEAGDEADYFCQVWDRTSDHVVFGGGTKLTVL
B2: 1-64 (antibody, V domains shown)
VH: B1 VH with E26G
VL: B1 VL
B3: 1-175 (antibody, V domains shown)
VH: QVHLVESGGGLVKPGGSLRLSCAASGFTFSDYYMAWIRRAPGKGLEWISFISGSGRTLYHAESVKGRFTVSRDNAKDSLYLHMHSLRDADTAVYYCARDSYSKLVEIEAIEAFDVWGRGTVVTVSS
VL: SYELAQPPSVSVAPGKPARIACGGDNIGGKSVHWYLQKAGQAPVLVMSYDSDRPSGIPERFSGSNSGNTATLTISRVEAGDEGDYFCQVWDRQTDHVVFGGGTKLTVL

Molecular target: pentameric gH complex on infectious CMV (neutralization assays) (human cytomegalovirus)
Assay: cell-based or functional assay

For B1, which EC50 Neutralizing is on record?
Its EC50 Neutralizing is 0.9 ng/mL.

For B2, which EC50 Neutralizing is on record?
Its EC50 Neutralizing is 1 ng/mL.

Which EC50 Neutralizing does the source give for B3 here?
The EC50 Neutralizing was 1 ng/mL.
